Assay results: the Immune Epitope Database (IEDB)

Columns and labels:
Experiment in all cases: IEDB peptide-MHC binding, purified MHC/competitive/radioactivity; filed as Kd, often an IC50 or EC50 that approximates it; ≥ and ≤ were set here for values at or beyond the usual limits of such assays
[1] = target: HLA-A*03:01
[2] = target: HLA-A*33:01
[3] = target: HLA-A*31:01
[4] = target: HLA-A*11:01
[5] = target: HLA-A*68:01
[6] = source organism: Lassa virus Josiah
[7] = source organism: Vaccinia virus WR
[8] = source organism: Dengue virus 1 Brazil/97-11/1997
[9] = source organism: SARS coronavirus Tor2
[10] = source organism: Dengue virus 2 Jamaica/1409/1983
[11] = source organism: Dengue virus 3 Martinique/1243/1999
[12] = source organism: Mammarenavirus machupoense
[13] = source organism: Dengue virus 4 Philippines/H241/1956
[14] = source organism: Mammarenavirus whitewaterense
[15] = source organism: Mammarenavirus lassaense
[16] = source organism: Mammarenavirus guanaritoense
[17] = source organism: Dengue virus 2 Peru/IQT2913/1996

Sequence	Kd [3, 7] [nM]	Kd [1, 7] [nM]	Kd [4, 7] [nM]	Kd [5, 7] [nM]	Kd [2, 7] [nM]	further results
TSFYLISIFL	–	–	–	–	–	Kd [1, 6]: 8080 nM; Kd [2, 6]: ≥ 31100 nM
AVFKDSFLR	3.03	16.2	6.49	0.821	323	–
WQLMYFHRR	–	–	–	–	–	Kd [3, 8]: 4410 nM
TLDESFLGR	–	–	–	–	–	Kd [3, 9]: 841 nM; Kd [1, 9]: 1430 nM; Kd [4, 9]: 669 nM; Kd [5, 9]: 947 nM; Kd [2, 9]: 1120 nM
RMLNILNRRR	–	–	–	–	–	Kd [3, 10]: 1.6 nM
FLDKSIHLTK	104	117	177	235	530	–
KLTYQNKVVK	–	–	–	–	–	Kd [1, 11]: 66.1 nM
TTGIGYQPYR	–	–	–	–	–	Kd [3, 9]: 105 nM; Kd [1, 9]: 6450 nM; Kd [4, 9]: 1140 nM; Kd [5, 9]: 9.5 nM; Kd [2, 9]: 1740 nM
TILLSDKGK	7390	1540	81.2	198	≥ 44300	–
DVKVLAARLK	3000	1160	2350	592	5070	–
SQIQLSLLK	–	–	–	–	–	Kd [3, 9]: 18000 nM; Kd [1, 9]: 892 nM; Kd [4, 9]: 29.2 nM; Kd [5, 9]: 6270 nM; Kd [2, 9]: ≥ 77700 nM
ELNIVDEIIK	≥ 70000	11800	19000	2650	13900	–
LSSIKSKSRR	644	≥ 32100	2030	163	16500	–
VTSLAIKNYY	281	206	21.7	112	420	–
IFPGDKTSY	≥ 56700	11600	11700	17700	≥ 77700	–
LTMQRLLANH	–	–	–	–	–	Kd [3, 12]: 1860 nM; Kd [1, 12]: 876 nM; Kd [4, 12]: 1850 nM; Kd [5, 12]: 1610 nM; Kd [2, 12]: 8440 nM
KMLLNRFTTR	–	–	–	–	–	Kd [3, 13]: 3.77 nM
FFRKLVLTNK	200	1020	390	3730	243	–
ALLRALRLTK	–	–	–	–	–	Kd [3, 9]: 233 nM; Kd [1, 9]: 3.17 nM; Kd [4, 9]: 24.5 nM; Kd [5, 9]: 1790 nM; Kd [2, 9]: ≥ 70000 nM
IAARILSEK	4550	14.9	13.5	11.8	4870	–
LFIDRGSIK	2140	1720	14300	1290	1110	–
LLFVVEVVDK	–	–	–	–	–	Kd [3, 9]: 6560 nM; Kd [1, 9]: 4390 nM; Kd [4, 9]: 3050 nM; Kd [5, 9]: 1330 nM; Kd [2, 9]: 6080 nM
ALNHTKKWK	–	–	–	–	–	Kd [3, 9]: 528 nM; Kd [1, 9]: 784 nM; Kd [4, 9]: 5640 nM; Kd [5, 9]: ≥ 77700 nM; Kd [2, 9]: ≥ 77700 nM
AAVTLNRIK	9300	≥ 34800	4760	3160	≥ 27100	–

Sequence	Kd [3, 7] [nM]	Kd [1, 7] [nM]	Kd [4, 7] [nM]	Kd [5, 7] [nM]	Kd [2, 7] [nM]	further results
MATMLEYVRY	1620	588	21.8	116	13500	–
DTSEVHWNYK	–	–	–	–	–	Kd [5, 13]: 6.73 nM
SLLTNDTTWI	–	–	–	–	–	Kd [3, 14]: 17000 nM; Kd [1, 14]: ≥ 70000 nM; Kd [4, 14]: ≥ 69700 nM; Kd [5, 14]: ≥ 70100 nM; Kd [2, 14]: ≥ 70000 nM
LIMFEQYFIY	14000	1030	134	1720	8190	–
VSIILANERY	8590	12800	1420	3850	19000	–
TSAYLISIFL	–	–	–	–	–	Kd ([2]; source organism: Lymphocytic choriomeningitis virus (strain WE)): 2170 nM
QQLRVESSSK	–	–	–	–	–	Kd [3, 9]: 435 nM; Kd [1, 9]: 588 nM; Kd [4, 9]: 721 nM; Kd [5, 9]: 1950 nM; Kd [2, 9]: 1260 nM
QCWRSFLNK	–	–	–	–	–	Kd [3, 15]: 880 nM; Kd [1, 15]: 567 nM; Kd [4, 15]: 4950 nM; Kd [5, 15]: 13600 nM; Kd [2, 15]: 743 nM
PVIVVPVIDR	13200	4820	≥ 21600	16.7	9180	–
EIWTKEGER	–	–	–	–	–	Kd [2, 10]: 47.9 nM
ALEYLSELK	8550	988	178	3480	≥ 77700	–
DFESVTNSVY	15600	≥ 33300	≥ 25400	11800	14800	–
AAISDYDYY	–	–	–	–	–	Kd [3, 9]: 17500 nM; Kd [1, 9]: 698 nM; Kd [4, 9]: 1100 nM; Kd [5, 9]: 4810 nM; Kd [2, 9]: ≥ 77700 nM
NSFIISTLNK	648	416	0.447	19.2	4460	–
GTSTDVVYR	–	–	–	–	–	Kd [3, 9]: 30.3 nM; Kd [1, 9]: 79.2 nM; Kd [4, 9]: 17.9 nM; Kd [5, 9]: 16.5 nM; Kd [2, 9]: 481 nM
VIPFDDIVR	338	≥ 78000	9600	174	302	–
SSMVNGVVK	–	–	–	–	–	Kd ([4]; source organism: Dengue virus 1 Singapore/S275/1990): 73.4 nM
PSAEDNYLAK	≥ 20300	≥ 32200	8.64	5710	4120	–
VSILASSLLR	–	–	–	–	–	Kd [3, 11]: 872 nM; Kd [4, 11]: 514 nM; Kd [5, 11]: 468 nM; Kd [2, 11]: 200 nM
TSEHGGRAYR	–	–	–	–	–	Kd [3, 11]: 72.4 nM
VVKLTAVCMK	208	115	121	723	2680	–
SSFIMRNFLR	1.3	2100	8.89	13.6	870	–
LSARNKLFK	168	2.21	0.532	14.9	16100	–
GLVASIKNFK	–	–	–	–	–	Kd [3, 9]: 7560 nM; Kd [1, 9]: 630 nM; Kd [4, 9]: 1320 nM; Kd [5, 9]: 507 nM; Kd [2, 9]: ≥ 20600 nM

Sequence	Kd [3, 7] [nM]	Kd [1, 7] [nM]	Kd [4, 7] [nM]	Kd [5, 7] [nM]	Kd [2, 7] [nM]	further results
SIYSRPKIK	4890	2.67	6.62	398	≥ 37900	–
YVIRHVDGK	≥ 77900	1450	10.2	1.72	≥ 77700	–
LMNVITLVYK	–	–	–	–	–	Kd [3, 9]: 742 nM; Kd [1, 9]: 10.6 nM; Kd [4, 9]: 23.7 nM; Kd [5, 9]: 748 nM; Kd [2, 9]: 5640 nM
NFEALEATK	6740	4210	84.5	704	1060	–
FLALGFFLRK	–	–	–	–	–	Kd [1, 11]: 29.1 nM
DLISYGGGWR	–	–	–	–	–	Kd [2, 8]: 1390 nM
PIFSDLLKY	≥ 56900	≥ 29500	6540	≥ 36900	≥ 77700	–
LLNSMMNRDK	690	39.2	1780	≥ 70200	≥ 27500	–
VIVVPVIDR	9910	≥ 78000	675	279	≥ 77700	–
ILIKRRQQK	–	–	–	–	–	Kd ([1]; source organism: Homo sapiens): 28.9 nM
IAPGIADIR	≥ 23900	≥ 78000	≥ 50100	29.4	≥ 29000	–
RTLGRNKKPR	–	–	–	–	–	Kd [3, 11]: 8.39 nM
RTYSDPLALK	–	–	–	–	–	Kd [1, 11]: 3.61 nM; Kd [4, 11]: 36.1 nM; Kd [5, 11]: 29.3 nM
VLKIVRNMEK	–	–	–	–	–	Kd [1, 10]: 82.8 nM
SFNMLKRAR	–	–	–	–	–	Kd [3, 8]: ≥ 34200 nM; Kd [2, 8]: 10 nM
FTVKLGGVFH	–	–	–	–	–	Kd [3, 16]: 695 nM; Kd [1, 16]: 14800 nM; Kd [5, 16]: 27.4 nM; Kd [2, 16]: 12500 nM
VSFLLLAGR	–	–	–	–	–	Kd ([4]; source organism: Mammarenavirus choriomeningitidis): 17.9 nM
ISLGLILLK	–	–	–	–	–	Kd [1, 13]: 31.2 nM; Kd [4, 13]: 1.21 nM
FLMSGRGIGK	–	–	–	–	–	Kd [1, 17]: 4.97 nM; Kd [4, 17]: 75.2 nM
RICTREEFTR	–	–	–	–	–	Kd [3, 8]: ≥ 70000 nM
SIPPTAGILK	–	–	–	–	–	Kd [1, 13]: 216 nM; Kd [4, 13]: 16.5 nM
LINRFTMKHK	–	–	–	–	–	Kd [1, 10]: 12.5 nM
